Where “and” joins values, the source holds several entries; their conditions need not be identical. Equal entries are not always repeated.

This data set deals with HEK293T. The data set is described as follows: median enrichment of reporter reads in eGFP-reduced (low/intermediate) vs eGFP-high sorted cells (eGFP-extension fusion abundance) (ratio); higher = stronger loss of eGFP-fusion protein abundance (more destabilising extension).
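Further: lentiviral eGFP-IRES-mCherry reporter pool sorted by FACS 96 h post-transduction, gated on mCherry-high cells, Illumina read counts normalized per million, median across four biological replicates.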

Regarding WPPPASLSPHP [TTC24], the median enrichment amounted to 0.329.
With SDVQDL [ZMPSTE24], the median enrichment worked out at 0.181.
Next, KIFLELLAIVTECPPFQSQLKTSAP [HEY2]: 4.36; LAEEVGMGALCLLC [FGA]: 11.4.
Regarding WNR [ZC3HAV1], the median enrichment amounted to 0.487.
Next, QAAVAPGDVCFIVPFFLLV [CCNB2]: 8.22.
Next, “RVAVWEPLCLAPGYPGPGNLRAGERWGGRHAEVLLVTGLPSLTCTYLHPELSSSPSSCLLLPTCLPSAGAPRPTHSYCTVHFI [SLC36A1]”: 3.4.
Next, RKGGSYSQAAM [HLA-G]: 0.441; “QSQPQLMPSQSQPPVTPSQSQPRVTPSQSQPHVTPYRSKSGKQKQSVPIPKTVSRKGTLKK [ADAM29]”: 0.14.
For the substance SWPPASASSYLLPGSPPRRPPYRERGFTR [OGG1], the median enrichment worked out at 6.11.
Next, “RGGSASVPSLTSLGCCFSGVMSPLPLGYLPSTGQGPWWADGN [SFXN3]”: 21.3; WRPGRRGPSSGG [Degron KLHDC2]: 10.7.
Next, “LFILEINLTNVMNVEKLLRGSWPLVNTREFILERNPTFVKNVAKPLSAPQPLQATREFIWKRDLTNVKNAAKPVFLRPD [ZNF727]”: 15.7; “QLGAHIKCFILHTWTLKPGCACILKQQSSHSFRQMFSVSEENMFSEEKTFRQMFSEEKKGKLGVGRC [PRAME]”: 9.08.
As for LSPLFLPTLQGPHSPYPSVQCTREETLCL [IDH3B], the median enrichment stood at 7.06.
As to SAAVTTFTCSSYTQTLQD [PIFO], the median enrichment was 1.55.
YQGPLDL [OR56A3]: the median enrichment is 0.714.
Next, WQMVIPFYFSS [CXorf1]: 10.3.
Next, “RYPGASPVTVTAAPPPRLLSASNHLDSPEESPMETALIRCPAAARGPRSPRVPLKECLGHIRPARSRERAPNARPG [CUX1]”: 4.54.
The result for GLPPWSLNPAPTSCLFS [PRDM10] reads 5.78; that for “CGGLPRRAKMAEMILKITEEREDQPEFPLDICVFLFFYFVLFFLLLLLP [SOX9]”, 9.11.
As to RGFRHCIPELL [PPM1M], the median enrichment came to 1.19.
For the substance QWSWLRVGEGTWA [RTP2], the median enrichment came to 2.67.
The result for “WRRLVSTHSGAFLISSSHTNHPSLPIVSSSQ [CYP19A1]” reads 12.8.
Next, YAAIDSRSLYTVTSEDYT [SLC46A3]: 6.41; RGAV [RELT]: 0.538.
The result for “CNHLTRTIGAPVASAHCLSLEKWRNKCYIYLCV [FAM149A]” reads 6.79.
In the case of SGCHGRLSPSIL [KRTAP6-1], the median enrichment was 0.506.
Next, “YPTVGPGWAGRSWCVTGCPGRHVLALTVPGLSLPAAAIQEIVATVTLTSSAWFLPLPSGVDKGPLIIFSFVFL [DVL2]”: 7.88.
With SGEMCVTINSKMGKPPSPCI [AK3], the median enrichment came out at 0.494.
Consider LKKNPRKNKS [NME5], for which the median enrichment came to 1.1.
Next, MMMMMMM [Met07]: 6.53; CITKCLYCLK [EFCAB1]: 7.35.
Next, “QRPLPGPSPAPRAPRPGPGARQTPACAPAERRLETGATASRVQQHSRHGSGRDSAWPRGTFPGQGPGGNWHGLVPLLCCILIP [ANKRD13B]”: 7.68.
Regarding “QEHPHDIAFGGAPVACRIACGLCNLLRFKTDGHMCQWGSLSPGPKKQGTKFKTLASSQPLKPWPPEFPFLSLSFYFFYFYFYF [JAK3]”, the median enrichment was 7.54.
The result for YTTMYFNKDHQC [LRP2BP] reads 1.43 and 3.14.
The result for RRRRRRRRR [Arg09] reads 1.11; that for CLGPGRATGSSQAAARMLISKRCWSLPS [ZBTB39], 30.1.
Next, WECRSAGRREE [CNPY1]: 7.46; QCMSLV [CCDC6]: 0.689; SEMPAALPCQR [CUEDC1]: 1.21.
As to “YHPHSSSSPPNRLGSRGLLCKPTGQLWLRAHLLQRVPQPLLNLDFCPNPLPVTRSISLSLLSNGAWSTEASEAIALLAEVKRT [SLC18A3]”, the median enrichment worked out at 4.57.
Consider IIIII [Ile05], for which the median enrichment was 8.97.
The result for “WRATGPQQCEGSLAAHPAAGAQPLPGMRLSADGETATQSFGLCVCVCVCVCVCAHPRVPVCVRILPPGAEVPWVSPLLCNGLL [FGFR3]” reads 3.69; that for LIFFYQEG [PTEN], 5.69; that for SLRLQRLLCIAFLLQCKERDQGSQEMFAQNGR [GDNF], 8.43.
Take “RPQMAGTCSSDERVLRRTPPSSVLEAGRLGSRRGQRHLLSVLGCKQLCVSGDTSHHVPGN [AIRE]”: the median enrichment turned out to be 7.82.
The result for SSSAC [BPTF] reads 0.596.
The result for GGRVGHPKR [ZNF786] reads 0.607; that for YTPLCHFSGDPAFLIWK [CENPE], 5.97.
The result for SCLY [GLRX2] reads 1.01.
In the case of WPDLSERHGYHRMKVEL [CUTC], the median enrichment worked out at 12.
As to WPQFQLSWAPAWTLPMAMPSLGNLSLPSVG [PLA2G3], the median enrichment is 12.4.
For the substance YDSNPDPGLIFQSPPSCGTASVC [NFKBID], the median enrichment turned out to be 4.34.
Next, CPAVGMAGLPGQTR [SLC25A10]: 0.543; WRLSISRDMVLTQQFPVMAKCSI [IL13RA2]: 5.59.
The result for EVHTVCHRMAHVIAHFCVDMVLV [ATP5IF1] reads 11; that for “RVFLGIVFCSCFSVLGMGPGPDTPSPPLWPWPLKLQTQVPILFSPSNAPPNLQPPCLQLPGPGRALVPSLGLIFSLNSTDQLP [JUP]”, 7.92; that for YGDNSPVSKPGCQIQ [KIR3DL2], 3.37.
The result for “RGALVSPQSSQAAGSPRQLSGHPVPSAPPSAALCSRPAPPSRGCLGLFTCFPSHINTVFPLLSYNSPTAHSPPH [TNFSF12]” reads 8.64; that for CSQVGFA [TUSC3], 0.572; that for GGGGGG [Gly06], 2.43.
For the substance SHHQELTHT [NUP88], the median enrichment is 0.49.
The result for EHH [SPRR2G] reads 0.297.
As for “QKCGKAFTKSSYCVQHLKFNTEQMQYKCNDSGRTFIILEGL [ZNF736]”, the median enrichment stood at 4.28.
On to GGGGGGG [Gly07], for which the median enrichment was determined as 2.97.
As for “LAGAAGVPPAPGPWVSAARPPPVPAVLSVHWGPSVVPFVENLLHKALLNCLELGTSIPMETSPVWGTWRICQRLSDMGPWQFY [NYNRIN]”, the median enrichment was 6.95.
Next, YCLKGFY [GNL2]: 8.39; LKH [HOXA2]: 0.608.
The result for EVNV [CLEC2B] reads 0.328; that for LPVRPAQPGPGPRFSTRTVHPASRSL [DLGAP3], 17.6; that for “WDSSPSPSDQGPSSSKPEAELPAHPCRPPKPTPPHPV [ARL8A]”, 1.02.
Turning to “LSRLCTQGPSLATSLPFCLTPGHPSSLPHAQLPESPLCLTSPSTNGTPEGL [CYP11B1]”, the median enrichment came out at 2.58.
The result for KCDKVQPSDLIIHKIIYT [ZNF679] reads 15.1.
The result for KQP [PSG11] reads 0.269; that for LKKKKG [TNFAIP6], 3.07.
Consider QFCPPVTPVSGTRNPQHALMLCF [DNMT1], for which the median enrichment stood at 4.79.
Next, QELARQLPLLHPQ [TECTB]: 0.3.
The result for YPVLEGTGGIIFNDLLN [NXPE3] reads 1.65; that for WKLRF [TRMT11], 1.93.
For WPV [HNRNPUL1], the median enrichment turned out to be 0.672.
In the case of “YGAKRCLSEVGHFLKIQIFISLFRHGCLQVFHCLLLLEI [TMEM246]”, the median enrichment was found to be 19.9.
Next, LSGAQE [HELLS]: 0.562; “QVRLVQEHKLPPSPSPPPPGPGLKQPEDSPRGWLSPAAGSAFTWGGGAGLTLNPPPRQVGEGSHHSKCL [SLC2A4RG]”: 2.26.
The result for CGAEHHPSH [PPM1J] reads 0.355; that for SLIRLAT [AK6], 9.3.
Next, “QYLTGHHRILWIFFPSFWFWFRANSCFIGTVYEAFETKNNEE [GALC]”: 6.16.
As to YPQPPPHHPLPKSSACSPGERTAGLSY [COTL1], the median enrichment was found to be 11.5.
The result for WLFCKSVLGGPSLRV [OR9A2] reads 4.81.
On to “RCAGSFLPSVKGQRCADLIFQLTTCFKRKIAHEKCLLAFQSIFEITG [FAM104A]”, for which the median enrichment came to 5.07.
The result for WWWWWWW [Trp07] reads 3.21; that for “RASPAHCQGRRGPDQGPRGLRAPPLSPPQCLRGPEPPPVPAAPLPQGPAMPHPGLKFCKVLRGPEHVSATRGSGQHCVLRLVS [SLC29A4]”, 8.55.
Next, LCT [DUSP22]: 1.23; LMLPGIK [CDV3]: 4.97.
Next, SML [CTHRC1]: 3.13; QSFTSKFYLLCLPLLSRRSCLLPGSLTCSLS [LRRC1]: 18.
QDTERRTYSRNGLVQSQSPPL [CFAP157]: the median enrichment was 0.332.
Next, WNEKYCGHLNNGLVSYNEMFSRILK [UGP2]: 3.44; KPGNPYSFSNTGSFI [ADAM30]: 0.59.
With CGLPSGGGAMWLGS [SMYD1], the median enrichment was 0.906.
Next, “SALGWSQGGTTQAPWAPRERGGIRAGQPPGCRCQEQSQAQVAPAACPVPFPKAPLHIEGRKREFRQLHSPFTPNPVFYSPEKR [STARD8]”: 3.27; LLC [OR10A3]: 3.73; YKL [OR6C2]: 0.678.
The result for “SGWLSLPFSPSLSALGSVSTAGPKVKVLPLPEASWQGLSWLEVASLVPVLTPRPQRSCLPCCLSPPLCLCLRCVSHSEPPCFC [CCDC97]” reads 5.33; that for SQDLVGGTGNWGWEGGNKDIWPS [RNF25], 1.76; that for QHWGRLPHPASGKPVAGHRVVPPVPS [SCLY], 11.

Values taken from the supplement of paper PMC11502859.
